The target of test [1] is 4NQ mutant (unglycosylated) PD-1 expressed on 293T cells (PD-1-Flag) (human) (UniProt Q15116). In words: flow cytometry on 293T cells expressing the PD-1 form, labeled secondary antibody; control antibody. For orientation: In flow cytometry, cells or beads pass a laser one at a time.
In test [2] the target is N116Q mutant PD-1 expressed on 293T cells (PD-1-Flag) (human) (UniProt Q15116). Described as above.
Test [3] concerns the target N49Q mutant PD-1 expressed on 293T cells (PD-1-Flag) (human) (UniProt Q15116). The test is described as above.
The target of test [4] is N58Q mutant PD-1 expressed on 293T cells (PD-1-Flag) (human) (UniProt Q15116). The test is described as above.
Test [5] has as its target N74Q mutant PD-1 expressed on 293T cells (PD-1-Flag) (human) (UniProt Q15116). The test is described as above.
Test [6] addresses wild type (glycosylated) PD-1 expressed on 293T cells (PD-1-Flag) (human) (UniProt Q15116). The description is as above.
Test [7] addresses 4NQ mutant (unglycosylated) PD-1 expressed on 293T cells (PD-1-Flag) (human) (UniProt Q15116). In words: flow cytometry on 293T cells expressing the PD-1 variant, anti-mouse IgG-PE secondary, DAPI-negative population gated; percent of cells right of the dashed gate; 293T blank cells give 1.69.
Test [8] addresses N116Q mutant PD-1 expressed on 293T cells (PD-1-Flag) (human) (UniProt Q15116). The test is described as above.
The target in test [9] is N49Q mutant PD-1 expressed on 293T cells (PD-1-Flag) (human) (UniProt Q15116). The description is as above.
Test [10] addresses N58Q mutant PD-1 expressed on 293T cells (PD-1-Flag) (human) (UniProt Q15116). The test is described as above.
The target in test [11] is N74Q mutant PD-1 expressed on 293T cells (PD-1-Flag) (human) (UniProt Q15116). The test is described as above.
In test [12] the target is wild type (glycosylated) PD-1 expressed on 293T cells (PD-1-Flag) (human) (UniProt Q15116). The description is as above.
wild type (glycosylated) PD-1 expressed on 293T cells (PD-1-Flag) (human), sequence (Q15116 25-288): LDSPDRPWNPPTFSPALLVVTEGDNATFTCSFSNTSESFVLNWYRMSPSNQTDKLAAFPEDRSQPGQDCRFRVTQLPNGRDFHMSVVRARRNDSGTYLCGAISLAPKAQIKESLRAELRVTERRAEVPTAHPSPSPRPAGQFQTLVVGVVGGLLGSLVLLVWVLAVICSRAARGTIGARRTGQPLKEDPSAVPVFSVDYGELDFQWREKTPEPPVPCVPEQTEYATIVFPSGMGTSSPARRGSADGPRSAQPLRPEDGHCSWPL

N49Q mutant PD-1 expressed on 293T cells (PD-1-Flag) (human), sequence (Q15116 25-288 N49Q): as the sequence (Q15116 25-288) above, with N25Q counted along it
N116Q mutant PD-1 expressed on 293T cells (PD-1-Flag) (human), sequence (Q15116 25-288 N116Q): as the sequence (Q15116 25-288) above, with N92Q counted along it
4NQ mutant (unglycosylated) PD-1 expressed on 293T cells (PD-1-Flag) (human), sequence (Q15116 other isoform, or with tags, fused parts or gaps mutant): as the sequence (Q15116 25-288) above, with N25Q, N34Q, N50Q, N92Q counted along it
N74Q mutant PD-1 expressed on 293T cells (PD-1-Flag) (human), sequence (Q15116 25-288 N74Q): as the sequence (Q15116 25-288) above, with N50Q counted along it
N58Q mutant PD-1 expressed on 293T cells (PD-1-Flag) (human), sequence (Q15116 25-288 N58Q): as the sequence (Q15116 25-288) above, with N34Q counted along it

Turning to control mouse IgG (antibody), the MFI in test [1] was found to be 26 MFI; in test [2], 28 MFI; in test [3], 31 MFI; in [4], 106 MFI; in test [5], 26 MFI; in test [6], 52 MFI. Further, the Unit (%) (cells in the positive gate) in [7] was determined as 1.53%; in test [8], 2.37%; in test [9], 2.73%; in test [10] it was 17.6%; in [11], 3.25%; in test [12], 10.7%.

The values above are taken from patent publication US20210139588A1.
